According to the RNAGym collection of RNA variant scans (doi:10.7554/elife.90254):

B1: OR4K15 (parent)
chain: GUUAACGGUCAUAGGCCAUGGAAACUAGGAGCACCAUUUCGCUGCCAGUGAAGAAAUGAACAAAGAAAAUCUGGGCCAGGCAGGCAUCAAAAGAAAUAGUCUUGCGCUCAACCAGAAAGUCUGUAAUCAUUUUAAGGGUA

Variants of: B1
Experiment: self-cleavage, relative activity (ratio to wild type); higher = more cleavage; in vitro, sequencing; the parent is a self-cleaving ribozyme
Work on U102A U103C yielded a self-cleavage of 0.12.
With A33G U87C the self-cleavage was 0.7.
With A52U A62G the self-cleavage was 1.23.
In the case of U70A, the self-cleavage is reported as 0.83.
A56G A68C showed a self-cleavage of 2.25.
With A27U A59G the self-cleavage was 0.92.
C6A A117G gave a self-cleavage of 0.6.
Variant U49C A68U has a self-cleavage of 1.95.
Work on C77U A114U yielded a self-cleavage of 0.14.
In the case of A111G A126U, the self-cleavage is reported as 0.01.
U12C U57C showed a self-cleavage of 1.27.
A33G U130A showed a self-cleavage of 1.1.
For G7A U131G, the self-cleavage was 1.7.
For A67G U124C, the self-cleavage was 0.87.
A18U U70A showed a self-cleavage of 1.35.
G44U A64G gave a self-cleavage of 1.19.
A5G A13G gave a self-cleavage of 0.89.
U97C U108C showed a self-cleavage of 0.04.
A68G A134U showed a self-cleavage of 1.49.
In the case of U49A A56G, the self-cleavage is reported as 1.74.
A23U A33U gave a self-cleavage of 1.17.
U38C A78C gave a self-cleavage of 0.46.
Variant G28A has a self-cleavage of 1.09.
Work on A30G A56G yielded a self-cleavage of 1.27.
Variant G79U G99A has a self-cleavage of 0.03.
Work on A60G A90U yielded a self-cleavage of 1.84.
For G31A U38C, the self-cleavage was 1.93.
U12C A82U showed a self-cleavage of 0.24.
For A60C A68G, the self-cleavage was 1.17.
For U132C A135G, the self-cleavage was 1.53.
With A13U A62U the self-cleavage was 1.05.
Work on A36U A66U yielded a self-cleavage of 1.05.
G28U U49A gave a self-cleavage of 2.04.
With A27G U139A the self-cleavage was 1.27.
In the case of U19C A110G, the self-cleavage is reported as 0.08.
In the case of A27C A116U, the self-cleavage is reported as 0.23.
With A64G U108C the self-cleavage was 0.01.
U19A A62G gave a self-cleavage of 1.32.
For G73U A118G, the self-cleavage was 0.02.
For A47G U127C, the self-cleavage was 0.59.
With A55G U57G the self-cleavage was 1.41.
Variant G20A A118G has a self-cleavage of 0.79.
Work on A18G C32U yielded a self-cleavage of 1.17.
Variant A5G A135G has a self-cleavage of 2.3.
With A5U A27G the self-cleavage was 2.05.
U97C G136U showed a self-cleavage of 1.55.
A64G A116U showed a self-cleavage of 0.19.
A5G A68G showed a self-cleavage of 0.89.
For G31C U139C, the self-cleavage was 1.53.
In the case of C17A A117G, the self-cleavage is reported as 1.53.
A129G showed a self-cleavage of 0.93.
U108C U131C showed a self-cleavage of 0.01.
A22G A23G gave a self-cleavage of 1.09.
In the case of A22U A30G, the self-cleavage is reported as 1.13.
Work on A68C U131C yielded a self-cleavage of 0.94.
U49C A89G gave a self-cleavage of 1.26.
With A66G U97C the self-cleavage was 1.98.
With A11G A27C the self-cleavage was 0.61.
With C40U U130C the self-cleavage was 0.46.
A51G A89U showed a self-cleavage of 1.41.
U87C A129G showed a self-cleavage of 1.14.
With A92G A126G the self-cleavage was 1.18.
In the case of A91G A98G, the self-cleavage is reported as 0.26.
A22U A36G gave a self-cleavage of 1.48.
A11G A86U gave a self-cleavage of 1.82.
In the case of A94U U130C, the self-cleavage is reported as 1.01.
C6U A125C gave a self-cleavage of 1.
In the case of U49A U108C, the self-cleavage is reported as 0.01.
Variant G50A A117G has a self-cleavage of 1.92.
Variant G48A U130C has a self-cleavage of 0.82.
For A52U A129G, the self-cleavage was 0.81.
Variant A13U U130C has a self-cleavage of 0.69.
A36U G106A gave a self-cleavage of 0.02.
With A118G U139G the self-cleavage was 0.07.
Variant A82U A140G has a self-cleavage of 0.23.
Variant A22U A116G has a self-cleavage of 0.96.
Work on A51G A78G yielded a self-cleavage of 0.2.
C35U A94G showed a self-cleavage of 0.64.
A63G U108A showed a self-cleavage of 0.01.
In the case of A56G A86G, the self-cleavage is reported as 0.8.
Work on A90U A126U yielded a self-cleavage of 0.98.
In the case of A78C U122C, the self-cleavage is reported as 0.1.
Variant U103C A110G has a self-cleavage of 0.15.
U43A U127C gave a self-cleavage of 1.07.
A22G A82U gave a self-cleavage of 0.36.
Variant A89G A91U has a self-cleavage of 2.19.
In the case of A5G U132C, the self-cleavage is reported as 0.89.
With A129C U132C the self-cleavage was 0.98.
A114C U122G gave a self-cleavage of 0.01.
In the case of G28A A56G, the self-cleavage is reported as 1.49.
For A82G A96U, the self-cleavage was 0.45.
U97C U122G gave a self-cleavage of 2.57.
For A23U U43C, the self-cleavage was 1.22.
In the case of A94G A114U, the self-cleavage is reported as 0.04.
In the case of A129G G137C, the self-cleavage is reported as 1.54.
For G21U U102C, the self-cleavage was 2.03.
With U38C G75A the self-cleavage was 0.13.
For U87A A95G, the self-cleavage was 0.76.
A89U A129C gave a self-cleavage of 0.68.
With U127G A129G the self-cleavage was 0.97.
For G21A A95G, the self-cleavage was 2.07.
G48U A56G showed a self-cleavage of 1.4.
With A110G U139C the self-cleavage was 0.17.
With A86U U87C the self-cleavage was 1.51.
With G7U U108C the self-cleavage was 0.02.
Variant U26A G115U has a self-cleavage of 0.13.
A11U U132C showed a self-cleavage of 0.89.
For U97C A134G, the self-cleavage was 1.02.
G41U A47G gave a self-cleavage of 1.2.
U2A A68U showed a self-cleavage of 0.46.
A69U A78C gave a self-cleavage of 0.31.
A94G U122C showed a self-cleavage of 1.21.
With G15A U102C the self-cleavage was 1.98.
C10U A95C showed a self-cleavage of 0.6.
With A22G A114U the self-cleavage was 0.08.
Work on U70A C77U yielded a self-cleavage of 2.04.
Variant U19C C113U has a self-cleavage of 0.08.
With A67C A117G the self-cleavage was 2.74.
C71A A98G showed a self-cleavage of 0.14.
Variant U43C has a self-cleavage of 1.29.
Work on G8A U120C yielded a self-cleavage of 1.57.
For A78U A91U, the self-cleavage was 0.8.
A95G U131C gave a self-cleavage of 1.46.
Variant U38C A54G has a self-cleavage of 1.17.
A5G A62G gave a self-cleavage of 0.59.
Variant A11G A82U has a self-cleavage of 0.2.
In the case of A24G A86U, the self-cleavage is reported as 1.44.
Work on A86U U127A yielded a self-cleavage of 2.92.
U9A A89U gave a self-cleavage of 0.66.
Work on U87C A114G yielded a self-cleavage of 0.43.
A13G U139A showed a self-cleavage of 1.51.
A13G U139C gave a self-cleavage of 1.13.
With A68U A91G the self-cleavage was 1.35.
A82U A94C gave a self-cleavage of 0.06.
In the case of A62G A111G, the self-cleavage is reported as 0.02.
A66G C76A showed a self-cleavage of 0.23.
A60G G79U showed a self-cleavage of 0.08.
Variant G29A A54G has a self-cleavage of 1.96.
For A90C, the self-cleavage was 1.55.
U38A A92G showed a self-cleavage of 1.34.
For A4G A18U, the self-cleavage was 1.25.
Variant U102G U133A has a self-cleavage of 1.45.
Variant G83A U120C has a self-cleavage of 1.74.
Variant U87G A126C has a self-cleavage of 0.12.
With A55G the self-cleavage was 1.06.
For C76U A96C, the self-cleavage was 0.1.
For A110U A140G, the self-cleavage was 2.04.
In the case of G73A G79A, the self-cleavage is reported as 0.17.
U2C A52G showed a self-cleavage of 1.19.
Variant U37G A55G has a self-cleavage of 1.07.
In the case of A68G U127G, the self-cleavage is reported as 1.35.
With A51U A59G the self-cleavage was 0.95.
With U38C C45U the self-cleavage was 1.23.
With U57A A69C the self-cleavage was 0.34.
U39A A78U showed a self-cleavage of 0.44.
For U39A U49A, the self-cleavage was 1.4.
In the case of A47C A92U, the self-cleavage is reported as 0.74.
For U3A U38C, the self-cleavage was 1.
Work on U72A A98U yielded a self-cleavage of 0.33.
C32A U132C gave a self-cleavage of 0.85.
In the case of U49C U57C, the self-cleavage is reported as 0.57.
For A30U A55G, the self-cleavage was 1.55.
A36U A116G showed a self-cleavage of 0.96.
G79U U87C gave a self-cleavage of 0.11.
Variant G119A has a self-cleavage of 2.29.
Work on A69G U108C yielded a self-cleavage of 0.02.
C61G gave a self-cleavage of 1.24.
